Source: the supplement of paper PMC10567573

B1: ZNF232 (parent)
chain: HSGEKPFICKECGKAYGWCSELIR
B2: FUT8 (parent)
chain: YPSYKVREKIETVKYPTYPEAEK

Variants of: B1
Assay: protein stability index of a GFP-peptide fusion (GPS, HEK-293T) (PSI 1-6); higher = more stable
Conditions: c terminus: a fixed tail appended
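Note: lentivirally expressed fusions sorted by FACS into six bins by GFP to DsRed ratio, PSI derived from sequencing read proportions per bin multiplied by bin number.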

Protein stability index, by site and new letter:
P6: I 1.83 | D 2.68 | K 2.91 | R 2.23 | Q 1.35 | N 2.37 | G 2.08 | F 1.66 | H 2.04 | M 2.04 | C 2.45 | S 1.98 | L 2.2 | A 1.74 | E 2.37
G3: T 2.07 | P 2.22 | V 2 | A 1.86 | E 2.29 | R 1.61 | L 1.57 | S 2.14 | C 2.5 | D 2.32 | Y 1.88 | F 2.13 | H 1.47 | K 1.99 | M 2.49 | I 1.87 | N 2.07 | W 1.86 | Q 1.97
K5: R 2.57 | G 2.38 | M 2.05 | V 2.08 | C 1.8 | N 2.23 | W 1.96 | S 2.21 | T 1.86 | L 1.65 | Y 1.74 | D 2.17 | F 1.65 | I 2.21 | P 2.63 | E 3.4 | Q 2.12 | A 2.1 | H 1.84
H1: W 1.81 | D 2.31 | G 2.55 | E 2.4 | M 1.16 | T 1.82 | P 2.37 | Q 2.32 | K 2.12 | I 2.21 | Y 2.28 | V 1.88 | A 1.89 | L 1.9 | R 2.45 | N 2.15 | F 2.76 | C 1.61 | S 2.33
S2: M 2.07 | D 2.51 | C 2.12 | P 2.33 | N 2.58 | I 2.21 | F 2.87 | E 2.35 | H 1.91 | K 1.74 | L 2.4 | G 2.12 | Y 1.81 | V 1.84 | W 1.68 | T 1.76 | R 1.64 | A 1.7 | Q 2.04
E4: P 2.22 | M 1.46 | K 1.54 | T 1.29 | F 1.37 | G 1.71 | C 1.9 | L 2.76 | S 2.52 | Q 1.53 | N 1.95 | H 2.17 | W 1.54 | R 1.6 | V 1.05 | I 1.27 | D 1.91 | A 1.55 | Y 1.81

Variants of: B2
Assay: as above
Conditions: c terminus: native

Protein stability index, by site and new letter:
E20: W 2.9 | Y 3.52
A21: G 4.29 | H 4.56 | M 4.7 | W 4.21 | E 4.97 | R 3.43 | P 4.04 | F 4.18 | Y 3.67 | K 3.26 | L 3.38 | V 3.89 | S 4.1 | N 3.45 | I 3.85 | C 3.74 | D 4.34 | T 3.67
E22: S 4.04 | I 2.17 | D 4.31 | A 3.28 | Y 2.93 | C 1.66 | V 1.9 | P 4.46 | W 2.91 | T 3.32 | K 4.54 | R 4.2 | Q 4.44 | N 4.36 | M 3.45 | L 1.97 | F 4.11 | H 4.28
K23: L 3 | Y 2.9 | S 3.46 | D 4.61 | H 4.15 | N 3.95 | Q 4.04 | P 3.88 | C 3.19 | M 2.94 | I 4.41 | W 2.53 | T 3.36 | R 1.82 | V 3.4 | E 1.93 | F 3.68 | G 3.96 | A 2.92
